# Results as given in the DeepSol protein solubility set.
# Test: soluble on expression in E. coli; label from the status in PepcDB or PDB records
row,Sequence,soluble on expression in E. coli
1,MKTTTYNTDWAAEKTKIRSFFDEYYVDNEDGSGKAFPYRDQVFEIARRDKQAIVVNVDHIKESDIPDALELSEAITSNTKRYEVLFKDTISDMIQDYLGDKQAPVIDALDAYMFQRLHMDRNEGAANEEVSLQDKRKKYPPQLLQRFEVYFTTDDAAHETCVRNIKATEIGHLVSMKGVVIRATEVKPCVEVMTYTCDTCAAEVYQPVKGMQFTPPVNCPNKECVEAKANGRLHMQLRGSKFVKFQELKIQELSEQVPVGSIPRTMTVHVYGEMTRKCNTGNVVHVSGVFLPIMQSGFRPTGGLVADTYLEAHYINNLDDNPTFNGVQSAELEVLRRKGDNYETLAASIAPEIFGHVDVKKCLLMALVGGNDNSSNGMKIRGCINVLMMGDPGVAKSQLLGYVNRLAPRSQYTTGRGSSGVGLTAAVMKDPVTGEMSLEGGALVLADGGICCIDEFDKMMDHDRTAIHEVMEQQTISIAKAGIMTTLNARTAIIAAANPAYGRYNPNRSIEQNVDLPAALLSRFDLILLMQDKADRENDKILAEHITYVHQHGCHPNREKKDLISLETLREYISLCKTYTPTVDPALRERIVEAYVEMRRDARYSSDPTFVSPRMILGIVRMATARAKLRLSTIVDESDVEEALRLMQFAKDSLRPEQNKIEKRMAPVDAAFAVLRELYHADNAPIAISNAIQRCARKGISEVALKKCLDQYTANGLLVMDRQNIVFAMN,not soluble
2,MSTELIAAVEAADSAEGLVRAVAALSAARTDAAIPTLISVLAFNNPGAAVVAVDGLIQLGSPAAQAILNNLDDYNYGARAWALRALAGIGEPAALPLLLSAAREDFSLSVRRAATYGLGRVRWADLSESDRLAQQQQCYETLKLCLQYDPEWVVRYAAAAALETLAPAATQLQSAIAETLNRQAHSDEERAVQARSRLAERRLAGGVLEHHHHHH,soluble
3,MGSDKIHHHHHHMIRLFEYDSKQAQSLSQVPVHQPSIIRVIHGEKSLLWQDESVLVGQGQLLLIPAGSHISFVNRPFLGRYRAVQLLLPHDLPQGILSSTADWRDPMPVQNVSRAVDLAWNALLQSLSLSLADSVQLHYLAALLLSLPDKRSVNWLYGHTQRSVTQAALALMSVSPSAPWQQEEIADKLHMSTASLRRKLVLEDTSFRQLLVEVRLSHGLAMLQNSGEPLLQVALACGYQSAEKFSLRFKQQFGLTPAAYRRTL,not soluble
4,MGRPRYLAYTRQIAMKSWRKAVVGTQATVGDAIAAIESGSIQIALVLDDQNRLLGVVTDGDVRRGLLRGIPLTGLATDIMNRVPVSAPATLSRDDRLHLMRQKSIKQLPLVDEGGHLVVVETLDELLEPRHYANPVLIMAGGLGERLGALTRDVPKPMLNVGGRPLLETIVRNVVQQGFRNIYISVNYKAETIKDYFADGAAFGANIQYVHETERLGTAGALGLFPAPPDLPMIVTNGDILTTINYGALLDFHNGTPAEATMAVREHKVHVPYGVVSTSDGFLQAIREKPTESWFVSAGIYVIGSSVFGHVAPGVSIDMPTVLERVIAGKGRVAVYPIREYWLDIGRLEDFEQAHAEFHEVFPLEHHHHHH,soluble
5,AHHHHHHGSKILAIAPNISRPYLGPAAVVHNTLKGFIKINKELEREDIEITFLSINDKIKSKKLTDNINIIGTKRFPPVTFTGEIQALFVSRKLEKPDLVHSHDLYEIFPWILKKIPTIFTLHGIVWKEKMFTKSLYAKLWYYLYEKRLRAYHKKFTKFVAISP,not soluble
6,MGSDKIHHHHHHMDLSKIASTINMRYYSQLGGFQVGGAVSGLDTQSIINAILEAESQPLQNLTEKYEKYELMQEAYTEVKTKLREFRDLVYSFKLQSTVVQKTAVSSSSLLSAEASSVAVTGVYHVKIVQTATYTTLAGASEVVPPPDSTKTFGELDYMYTPQEGTVRLYNNETGNYVEVQVLSTDTIDDIVSKLNSALSSAGITGSVSYDTSTGKISITSDKNFSLVDITGNFTKVFHLDEASLNYSGGNYSFTSTASVSGLSTAKTLQQIATYTSKTIISGKVKINGVEIDVDQNDTLSSLIEKINDSEAGVTASYDYHANRVVIISKTSGPEAITLEDTYGTGLFSLLGIENHSLYVGQKAHLQISMDGTNWADVYSDTNDVEYNGVTFHISGMTSETITVDVRVDTDAIVEKIKEFVDKWNETMDYLNEKLTEESITDKDEEEMTEEEKMKGVLKGDDLLEEIFSRLRGFITYKAEGDINYLWELGISTGDIGTGYENMMKGHLEVDEEKLKQIVEEDPNKVWEFFGGENGFATQLDDYLWELVKFNGRIDQVAGISGRIEREQRFLATQIASWIERLSKREQELWRKFSVMEEVISQLQSQGSWISQALQGSSNK,not soluble
7,MTPPADETRLFECVTCGGVGIGDNRPTCCGEPMAATETGDTAVSEPSLETLLKTVFDMSGTELDICLCVMEGGELTVAALAEQIGYDRSVVARHLNHLAAFGVVEKRRRIRPEGGHVYVYTPQPPEVVRERLREEFLSWVRLATAQLDDLQREKVEAIADAKTDERQWTVFQEQ,not soluble
8,MVPAPEAIRQALQERLLARLDHPDPLYRDLLQDYPRRGGKMLRGLLTVYSALAHGAPLEAGLEAATALELFQNWVLVHDDIEDGSEERRGRPALHRLHPMPLALNAGDAMHAEMWGLLAEGLARGLFPPEVLLEFHEVVRRTAYGQHLDLLWTLGGTFDLRPEDYFRMVAHKAAYYTAVAPLRLGALLAGKTPPAAYEEGGLRLGTAFQIVDDVLNLEGGEAYGKERAGDLYEGKRTLILLRFLEEAPPEERARALALLALPREAKPEAEVGWLLERLLASRALAWAKAEAKRLQAEGLALLEAAFQDLPGKEALDHLRGLLAALVERRA,soluble
9,MNYVSLVLVSHSEEIAKGLKKLLKQIAPDVRIAAAGGSDGEIGTNALHIQEAIESVYSEKGTVVLFDLGSALLNAELALEMADRKERVRIADAPLVEGAYIAAVEAGLGKPLEEVVQACEAAKEMVKIAK,not soluble
10,MSMKGKETMSKQNEKLVVGKLGSSYGIRGWLKVFSYTDNPESIFDYSPWYIDQKGEWVEYKVEGWKRHNKGWVVKLQGLDVREDAHLLTNFEIAIDPASLPELSEDEFYWRELFGMQVVTTNGYDLGVVTDMMETGSNDVLVVKANLKDAFGQKERLIPFLEEQVIKVVDRQAQRIEVDWDPAF,soluble
11,MIDFRPFYQQIATSHLSAWLETLPLQLKQWEKTAHSDYAKWAKIATSMPTSPTSINLTDKVEAVLAEALPEGEKQYLIYRLKQLMPWRKGPYHLHGVHIDTEWRSDFKWQRVLPHLAPLKDRTILDVGCGNGYHMWRMVGEDAQMVVGIDPTELFLCQFEAVRQLLGNDRRANLIPLGLEQMQPLAAFDTVFSMGVLYHRKSPLDHLSQLKAQLVKGGELVLETLIIDGDINDILTPADRYAKMKNVYFIPSVAALINWLKKIGFKNARCVDQSVTTLAEQRKTEWLENESLVDFLDPTDQRKTIEGLPAPKRAVILANA,not soluble
12,MDFISSLIVGCAQVLCESMNMAERRGHKTDLRQAITDLETAIGDLKAIRDDLTLRIQQDGLEGRSCSNRAREWLSAVQVTETKTALLLVRFRRREQRTRMRRRYLSCFGCADYKLCKKVSAILKSIGELRERSEAIKTDGGSIQVTCREIPIKSVVGNTTMMEQVLEFLSEEEERGIIGVYGPGGVGKTTLMQSINNELITKGHQYDVLIWVQMSREFGECTIQQAVGARLGLSWDEKETGENRALKIYRALRQKRFLLLLDDVWEEIDLEKTGVPRPDRENKCKVMFTTRSIALCNNMGAEYKLRVEFLEKKHAWELFCSKVWRKDLLESSSIRRLAEIIVSKCGGLPLALITLGGAMAHRETEEEWIHASEVLTRFPAEMKGMNYVFALLKFSYDNLESDLLRSCFLYCALFPEEHSIEIEQLVEYWVGEGFLTSSHGVNTIYKGYFLIGDLKAACLLETGDEKTQVKMHNVVRSFALWMASEQGTYKELILVEPSMGHTEAPKAENWRQALVISLLDNRIQTLPEKLICPKLTTLMLQQNSSLKKIPTGFFMHMPVLRVLDLSFTSITEIPLSIKYLVELYHLSMSGTKISVLPQELGNLRKLKHLDLQRTQFLQTIPRDAICWLSKLEVLNLYYSYAGWELQSFGEDEAEELGFADLEYLENLTTLGITVLSLETLKTLFEFGALHKHIQHLHVEECNELLYFNLPSLTNHGRNLRRLSIKSCHDLEYLVTPADFENDWLPSLEVLTLHSLHNLTRVWGNSVSQDCLRNIRCINISHCNKLKNVSWVQKLPKLEVIELFDCREIEELISEHESPSVEDPTLFPSLKTLRTRDLPELNSILPSRFSFQKVETLVITNCPRVKKLPFQERRTQMNLPTVYCEEKWWKALEKDQPNEELCYLPRFVPN,not soluble
13,MSLAGTFAIAPTPFHDDGKIDDVSIDRLTDFYAEVGCEGVTVLGILGEAPKLDAAEAEAVATRFIKRAKSMQVIVGVSAPGFAAMRRLARLSMDAGAAGVMIAPPPSLRTDEQITTYFRQATEAIGDDVPWVLQDYPLTLSVVMTPKVIRQIVMDSASCVMLKHEDWPGLEKITTLRGFQKDGSLRPLSILCGNGGLFLDFEMERGADGAMTGYCFPDMLVDVVKLSKAGQRDLAHNLFDAHLPLIRYEHQQGVGLSVRKYVLKKRGLLSSSAQRKPGASLTDTAREEVDYLLSRLARVEGHHHHHH,not soluble
14,MNVYTFDFNDIKNQSDFYREFTQTFGLASEKVSDLDTLWDAVMSDILPLPLEIEFVHLPDKLRRRYGALILLFDEAEEELEGRLRFNVRH,not soluble
15,MGSDKIHHHHHHMRIAIVTHVVRHNDGQGRVNYEIARAALAENYEVTLVASHVAPELLADPRVRWVPVKVGRFWPSNLVKQQVFALKSAWWLRAHRGEYDVLHVNGFISWISADVNTAHFVHGGWFKSPYYPFGLTKGMWSAYQYVYTRVNTALERWAYRRSRAITAVSQKVADEIAGLGIDSRKISVIYNGVDGSAFAGAQPDRAAFKLPDDAFLLLFVGDLRTPRKNLGTVLKALTKLPANVHLAVAGYLPGSPYPDEARALGIDSRVHFLGLVKNMPTLMSSVDAYVFPSRYEAMSLSLLEAMAAGLPVVTARTAGGAEIITRECGIVLEDPDDPAALAQAIGSLAASRDTCRAMGDAARELMTRFGWAHMGAQYVALYRRIGQPTQPSAFERVEHAVTQEQS,not soluble
16,DDYDQSLCSTGFYVVRSNQINPETLLTLFKSLPIQQLLKKACSGTILTGIGKQEFEKIPIPLIRPEVQEEIAQHVQRSFALRKEASELLEKAKLSVEYAIETGGGNSLIYSGLLNTLAKYERLAMWLLLKELGIVDESPNRQRVVTTEKRLSESFFTSGRLDAEYYQPKYDYLDAQFSSIPTKRLGDIVNIHKSIEPGSDAYQENGIPFVRVADLSKFGIETSSICLDSSTYSTAPRPRKNTILLSKDGSVGIAYKMEEDADIITSGAILHLSMKGKELLPDYLTLVLNSPIVRMQAERDAGGSIIQHWKPSEISQVIIPMLPVYIQQKLSDLVSKSFAFRRESKALLERAKAMVEQAIEFSA,not soluble
17,MDNKVILVGGFHEIIELCEDNDIEIAGIIDNYLTNDTYWGYPIIGTDDKAKVLFETYKNVPVLITPDVPHVRYKLYHYYKSIGFQVASLISRDASISRSAIIGEGTIIQRGANLSSNIKIGQMVKVNTNANIMHDCLIGNYVTVAPNAVLLGKVEIDDKAYIGANATLLPSVKIGENVTVGAGSVVTKSVRLEHHHHHH,not soluble
18,HVGYPLLLKWLPLKPKANDEGEHFAERHYKASASDNKLPSVTIIIPAYNEEQWIAEKIRNLASLDYPRDKLKVVIACDGCTDKTAEIAQDTIQEAICSDTLFIVNDHSINRGKVALINEEMKHVTSDITALSDTSALVSCDSLLLASQHYQNEKVGVVNATYQIMRTSNQGEAAYWQYQSRVKHQESLLGSTIGSHGAFYTFRTKLFEPLEAGTINDDFILPMRIVLRGFTSVYEPKMLALELEQSSDDADFKRRLRISAGNMQQLMQLKKLLLPRYRGTAFAFLSGKVLR,not soluble
19,MAHHHHHHMLGACYPIPSGISLSLSRSRAYDVVYHYTRAAHIRLRLHGSGHSGEHMAAAEQRTCRPHLLWRLDGRPHADSIGHGLADDTRLCARVDLRRMLVACPRWGQSRAFIPQSRRLRALPRDGLRACLRGAVLPSGLATVTMVADDTT,not soluble
